Sequences and labels used below:
B1: peptide derivative H308_D1G_S16A (designed binder)
chain: GPQFGLFSKYRTPNCADHAGMACVALYEPVCGSDMSTYENECVLCMKIREGGHNIKIIRNGPCGG
B2: peptide derivative H321AT_D1G_S16A (designed binder)
chain: B1 chain with H18F, A19D, V24Y, L26F, E39A, V43T
B3: peptide derivative H322AT_D1G_S16A (designed binder)
chain: B1 chain with D17Q, A19E, V24Y, E39A, V43T
B4: peptide derivative H322AT (designed binder)
chain: B1 chain with G1D, A16S, D17Q, A19E, V24Y, E39A, V43T
B5: peptide H228 (designed binder)
chain: DPQFGLFSKYRTPNCGHYNGWACQAFFEPVCGSDMSTYANECTLCMKIREGGHNIKIIRNGPCGG
B6: peptide derivative H308AT (designed binder)
chain: B1 chain with G1D, A16S, E39A, V43T
B7: peptide H322 (designed binder)
chain: B1 chain with G1D, A16S, D17Q, A19E, V24Y, E39V, V43A
B8: peptide M7 (designed binder)
chain: B1 chain with G1D, A16S, L26F, E39A, V43T
B9: peptide H223 (designed binder)
chain: B5 chain with G16T, H17M, Y18D, N19M, W21M, Q24W, F27Y
B10: peptide H321 (designed binder)
chain: B1 chain with G1D, A16S, H18F, A19D, V24Y, L26F, E39M, V43A
B11: peptide H308 (designed binder)
chain: B1 chain with G1D, A16S
B12: peptide derivative H321AT (designed binder)
chain: B5 chain with G16S, H17D, Y18F, N19D, W21M, Q24Y, F27Y
B13: peptide H218 (designed binder)
chain: B5 chain with G16L, H17K, Y18S, N19E, W21M, Q24Y, F26Y, F27Y

Residue numbers refer to the chain shown, from its start.

The target in the first assay is T1, HTRA1 protease domain HTRA1 (cat) (human, UniProt F1N152 165-380 (bovine entry)). The assay is described as follows: cell-based or functional assay.
T1 sequence (F1N152 165-380): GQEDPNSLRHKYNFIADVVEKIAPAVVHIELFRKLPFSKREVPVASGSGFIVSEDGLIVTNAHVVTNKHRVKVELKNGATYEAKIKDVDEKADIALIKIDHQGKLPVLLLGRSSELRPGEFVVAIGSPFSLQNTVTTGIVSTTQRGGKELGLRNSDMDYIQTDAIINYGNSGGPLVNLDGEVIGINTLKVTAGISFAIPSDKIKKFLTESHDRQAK
Take B1: the “IC50 (nM) for HTRA1 (cat); decomposition rate of substrate peptide H2-Opt (n=3)” value (“IC50 (nM) for HTRA1 (cat) … (n=3)” below) is 7.9 nM.

On to B2, for which the “IC50 (nM) for HTRA1 (cat) … (n=3)” value stood at 9 nM.

Turning to B3, the “IC50 (nM) for HTRA1 (cat) … (n=3)” value was 12.9 nM.

The next assay deals with T2, full-length HTRA1 (HTRA1 (full)) (human, UniProt Q92743 23-480). The assay is described as follows: cell-based or functional assay.
T2 sequence (Q92743 23-480): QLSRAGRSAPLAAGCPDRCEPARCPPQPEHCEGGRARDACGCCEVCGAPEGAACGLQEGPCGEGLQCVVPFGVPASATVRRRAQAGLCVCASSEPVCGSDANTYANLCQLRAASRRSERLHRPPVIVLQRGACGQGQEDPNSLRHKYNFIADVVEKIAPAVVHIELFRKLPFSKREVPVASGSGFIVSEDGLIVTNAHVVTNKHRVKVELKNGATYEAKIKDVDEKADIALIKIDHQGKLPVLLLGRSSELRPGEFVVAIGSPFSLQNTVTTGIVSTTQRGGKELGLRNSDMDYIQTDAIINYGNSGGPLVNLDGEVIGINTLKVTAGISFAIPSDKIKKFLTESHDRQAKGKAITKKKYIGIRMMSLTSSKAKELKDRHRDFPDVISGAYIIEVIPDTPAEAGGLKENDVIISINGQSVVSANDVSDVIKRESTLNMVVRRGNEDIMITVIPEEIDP
Turning to B1, the “IC50 (nM) for HTRA1 (full); decomposition rate of substrate peptide H2-Opt (n=3)” value (“IC50 (nM) for HTRA1 (full) … (n=3)” for short) worked out at 9.1 nM.

Consider B2, for which the “IC50 (nM) for HTRA1 (full) … (n=3)” value came out at 12 nM.

For B3, the “IC50 (nM) for HTRA1 (full) … (n=3)” value worked out at 12.2 nM.

In another assay the target is T1, HTRA1 protease domain HTRA1 (cat). The assay is described as follows: cell-based or functional assay. This is another data set of the same source.
On to B4, for which the “IC50 (nM) for HTRA1 (cat); decomposition rate of substrate peptide H2-Opt” value came out at 45 nM.

Regarding B5, the “IC50 (nM) for HTRA1 (cat); decomposition rate of substrate peptide H2-Opt” value is 71 nM.

With B6, the “IC50 (nM) for HTRA1 (cat); decomposition rate of substrate peptide H2-Opt” value amounted to 49 nM.

Turning to B7, the “IC50 (nM) for HTRA1 (cat); decomposition rate of substrate peptide H2-Opt” value came to 50 nM.

For the molecule B8, the “IC50 (nM) for HTRA1 (cat); decomposition rate of substrate peptide H2-Opt” value turned out to be 43 nM.

Turning to B9, the “IC50 (nM) for HTRA1 (cat); decomposition rate of substrate peptide H2-Opt” value turned out to be 41 nM.

Regarding B10, the “IC50 (nM) for HTRA1 (cat); decomposition rate of substrate peptide H2-Opt” value was 48 nM.

Turning to B11, the “IC50 (nM) for HTRA1 (cat); decomposition rate of substrate peptide H2-Opt” value is 37 nM.

As to B12, the “IC50 (nM) for HTRA1 (cat); decomposition rate of substrate peptide H2-Opt” value amounted to 46 nM.

Take B13: the “IC50 (nM) for HTRA1 (cat); decomposition rate of substrate peptide H2-Opt” value amounted to 72 nM.

The next assay concerns the target T2, full-length HTRA1 (HTRA1 (full)). The assay is described as follows: cell-based or functional assay. The source holds these as a separate data set.
Consider B4, for which the “IC50 (nM) for HTRA1 (full); decomposition rate of substrate peptide H2-Opt” value stood at 25 nM.

For B5, the “IC50 (nM) for HTRA1 (full); decomposition rate of substrate peptide H2-Opt” value is 38 nM.

In the case of B6, the “IC50 (nM) for HTRA1 (full); decomposition rate of substrate peptide H2-Opt” value is 31 nM.

Take B7: the “IC50 (nM) for HTRA1 (full); decomposition rate of substrate peptide H2-Opt” value was determined as 17 nM.

B8: the “IC50 (nM) for HTRA1 (full); decomposition rate of substrate peptide H2-Opt” value worked out at 24 nM.

As for B9, the “IC50 (nM) for HTRA1 (full); decomposition rate of substrate peptide H2-Opt” value was 66 nM.

As for B10, the “IC50 (nM) for HTRA1 (full); decomposition rate of substrate peptide H2-Opt” value was 29 nM.

As to B11, the “IC50 (nM) for HTRA1 (full); decomposition rate of substrate peptide H2-Opt” value was 15 nM.

Consider B12, for which the “IC50 (nM) for HTRA1 (full); decomposition rate of substrate peptide H2-Opt” value stood at 18 nM.

As for B13, the “IC50 (nM) for HTRA1 (full); decomposition rate of substrate peptide H2-Opt” value amounted to 55 nM.

The values above are taken from patent US20240270803A1 (Daiichi Sankyo, published 2024).
